# Assay results from the DeepSol protein solubility set.
# Assay: soluble on expression in E. coli; label from the status in PepcDB or PDB records
row,Sequence,soluble on expression in E. coli
1,MSNLDNPGIYYQERFFANDGVPDTGRELIAEYRQLITQFRNFIRDFSTGGFGMIYRDQLKRNYFSHEYRLEINLNHLKNFDEDIEMKLRKFPGKVLPALEEAAKIVADEITTPRPKGEEKLHDIQVTLTLDEYPTSLRQVKSAQVSQVVKISGIIVAAAQVRSKATKVTLQCRQCKHTIPDVSIKPGLEGFALPRTCAAPQQGQMQRCPIDPYIMLPDKCECVDYQTLKLQENPEDVPHGEMPRHLQLFTERYLTDKVVPGNRVTIVGVYSIKKLIQKKGGDKSLQGIRTPYLRVLGIHMETSGPGRTNFTTFTPEEERMFKTLAQRKDAYELIAKSIAPSIYGSADIKKSIACLLFGGARKKLPDGITRRGDINVLLLGDPGTAKSQLLKFVEQVSPIGVYTSGKGSSAAGLTASVIRDPQSRSFIMEGGAMVLADGGVVCIDEFDKMREDDRVAIHEAMEQQTISIAKAGITTTLNSRCSVLAAANSVYGRWDESRGDDNIDFMPTILSRFDMIYIVKDTHDVLKDATLAKHVIEVHVNASAAKERDIAGVPKTATTDSDGVMTMFDTDGFLTIEFLKKFVTYARLNCGPRLTPQASEKLVNHYVKMRNPVVNADAFKSGKKAHNSAIPITVRQLEAIVRIAESIAKMELQQFATDKHVEEALRLFRVSTIEAAATGNLAGVEGFTSTADQEALNRIEVQMKKRFAIGTHVSEHLIVQDFVARQHYRESLVKKVIDNLVRRGDLQQKMQRKMLYRVR,not soluble
2,MTATNKQVILKDYVSGFPTESDFDFTTTTVELRVPEGTNSVLVKNLYLSCDPYMRIRMGKPDPSTAALAQAYTPGQPIQGYGVSRIIESGHPDYKKGDLLWGIVAWEEYSVITPMTHAHFKIQHTDVPLSYYTGLLGMPGMTAYAGFYEVCSPKEGETVYVSAASGAVGQLVGQLAKMMGCYVVGSAGSKEKVDLLKTKFGFDDAFNYKEESDLTAALKRCFPNGIDIYFENVGGKMLDAVLVNMNMHGRIAVCGMISQYNLENQEGVHNLSNIIYKRIRIQGFVVSDFYDKYSKFLEFVLPHIREGKITYVEDVADGLEKAPEALVGLFHGKNVGKQVVVVARE,soluble
3,AIASAADDVNKKRKTAKEVEQEECEIYQNVVFNSIVDSNSKHELVDPSLQKLGAKSRGKVTFLLEQASLELVKIDRKWEILNGDEHQQYMKRKNLNPADYRPDIVHQCVLSLLDSPLNKAGYLDLYIHTTNNVLIKVNPQTRIPRTLKRFCGLTVQLLQDLKIFGHGLNKPLLQIIQNPITNHLPDMCWKTVCSYNCENLMSPHKHAQEVLKKDMNILYVIGAMAHGKIVEEWADEELKISSFPLSASAVCHRICSAYEILYEVL,soluble
4,MKEGKWFASANNQNKFLDPRERGNILNYLKVCLLLARAVRRMHAAGLCHSDLSYKNVLIDPEQGHACIIDVDGLVVPGKFPPDVVGTPDFIAPEVVKTSHLLKEDPQRILPNITTDRHALSVLIYMYLFYRHPLRGGKIHDMDDEVRDESLAMGERALFIEHPTDRSNAVKLNQVKPSSLPWADPQKVPYTIMGPYLTQLFEKAFIDGLHDPSKRPTADEWETALVKTVDLIQPCQNTACEQKWYVFSGKTKPVCPYCLEHHHHHH,not soluble
5,MKRISPLRSLVACRWTNRARKRLAAVGLASICLLSACAPKFDKGEEVVQDKGSKQQEAVIPKYNIADSYYRVILPFKPSGARGEVVNDLNTRLDVDEFETGLMRLATEQFPSDEYLFQEGQYLDSETVGKWLARKKTTRQLKEEKMKPEDNLGLNPPISDTGTNEQKNKQSPIYLASILEHDYLVKIDNDKVKLGGIAIGLALNSVHYYSTEQGYPREVKIKDDVIEREGKRIAAEVLKRLRSMKGLGSVPITIALYKQAPRSSVVPGHFFAVAHVDGGDSTIDEWEAVNEEYYLFPSDEAEENHRDDWLKFNNFKSDVEDFFPNYTGIVGRGLYVNDQLQKLTINITMPFYGKAEVIGFTQYVTGLVMEKFPDYITVNVYIASAGQPESLIVRQAKADEPFVHIYQ,not soluble
6,PLGSKDNRLLYPKTKIDWGPGENHICLKTPFKNFYVIELFHQAPTFDKTIPLFISDINNSPNLYGIYNYIADHLRHVVLVNNYPVNQINIFGKIVYEQYKEKEFNGVEESYVILVISDFIGIDSKIRVRLSQEQFKEVGLTLDKKNYGKIVELEGEIYNWYDSINVSKKPDRELKVSKITVLSHRPDGLHFEFEQWKKRMEFRKNNLVEPWVFIPTPQRE,soluble
